The experiment deals with Affinity peptide KRTGQYKL immobilised in PEG hydrogel. The experiment in a line: absorption of bFGF into peptide-functionalized hydrogels.

Drawing on PMC2818180, this text covers bFGF absorbed in gel for 1 substance.

In turn, “Recombinant human bFGF (from UniProt P09038 143-288) (ligand)” had a bFGF absorbed in gel at 4.4 µM monovalent peptide of 27.3 ng/mg-gel.
